Where two headings read alike, the source gives them in different places. Square brackets hold non-standard residues; d marks the D form. Ends that are not written are not given here. Aib = CC(C)(N)C(=O)O
Key:
[1] = Test of solubility of insulin and long-acting insulin conjugate (RP-HPLC against calibration standard curve); assay type: physicochemical; settings: for Measurement value (quantitative value calculated by standard calibration curve): pH 6.0 acetic acid buffer, polysorbate, mannitol, sodium chloride, room temperature, supernatant
Text: A respective calibration standard curve of insulin and the long-acting insulin conjugate was first confirmed by Reverse Phase-High Performance Liquid Chromatography (RP-HPLC), as in FIG. 1.

[2] = pH 5.6

## Insulin
[1]; FIG. 2, composition of Table 1, pH 6.0
  solubility: 628 µg/mL
[1]; dissolved in long-acting insulin conjugate formulation buffer, pH 6.0
  difference between the theoretical value and the measurement value: up to 16 times
[1]; long-acting insulin conjugate formulation buffer, all cases, excluding 0.008 mg/mL
  pellets after centrifugation: pellets were observed
[1]; serial dilution of test material from about 10 mg/mL, pH 6.0
  point at which completely dissolved without impurities or pellet (minimum quantitative value): 0.008 mg/mL
[1]; theoretical quantitative value 0.008 mg/mL
  Measurement value (quantitative value calculated by standard calibration curve): 0.000 mg/mL
[1]; theoretical quantitative value 0.04 mg/mL
  Measurement value (quantitative value calculated by standard calibration curve): 0.000 mg/mL
[1]; theoretical quantitative value 0.2 mg/mL
  Measurement value (quantitative value calculated by standard calibration curve): 0.005 mg/mL
[1]; theoretical quantitative value 1 mg/mL
  Measurement value (quantitative value calculated by standard calibration curve): 0.047 mg/mL
[1]; theoretical quantitative value 5 mg/mL
  Measurement value (quantitative value calculated by standard calibration curve): 0.253 mg/mL
[1]; theoretical quantitative value 10 mg/mL
  Measurement value (quantitative value calculated by standard calibration curve): 0.628 mg/mL

## Oxyntomodulin derivative: oxyntomodulin derivative having the amino acid sequence of SEQ ID NO: 27, cysteine residue at position 30 (H[Aib]QGTFTSDYSKYLDEKRAKEFVQWLMNTC)
[2]
  difference between the theoretical value and the measurement value: up to 27 times
  solubility: 188 µg/mL
[2]; serial dilution of test material from about 5 mg/mL
  point at which completely dissolved without impurities or pellet (minimum quantitative value): 0.008 mg/mL

Source: patent publication US20230220034A1, “METHOD FOR IMPROVING SOLUBILITY OF PROTEIN AND PEPTIDE BY USING IMMUNOGLOGULIN FC FRAGMENT LINKAGE” (HANMI PHARM. CO., LTD., priority 2014, published 2023)
